Test results from the supplement of paper PMC6757056.
± gives the standard deviation of the averaged measurements.

B1: library; a variant is named by its letters at N, in order (parent)
chain: GCUGUCACCGGUGUAUUACCCUAGUGGUCGACCGGUCUGAUGAGUCUNNNNNNAGACGAAACAGC

What was measured:
hypoxanthine [1] = variants of: B1; assay: normalized RNA/DNA level with ligand (relative to sTRSVctl = 100) (log10 (% of sTRSVctl)); ligand: hypoxanthine (xanthine aptamer); higher = less ribozyme self-cleavage, higher mRNA level; conditions: ligand concentration (+) RNA-Seq: 5 mM, HEK293T, reporter: mCherry (pCS4076), ligand present: yes
Outline: (§1)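 Ribozyme switch library plasmids linked to reporters were introduced into HEK293T cells at 4 µg per 6-well well, with ligand, if any, added 1 h before. Total RNA was extracted with EDTA 72 h later, reverse-transcribed, amplified, barcoded and sequenced. RNA level was computed from RNA over DNA reads relative to a spiked-in non-cleaving sequence or the top sequences, then scaled and log-transformed. The top set was 25 sequences, values were ×100 and log10, and the cutoff was ≥100 DNA reads.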

hypoxanthine [2] = variants of: B1; assay: normalized RNA/DNA level without ligand (relative to sTRSVctl = 100) (log10 (% of sTRSVctl)); ligand: hypoxanthine (xanthine aptamer); higher = less ribozyme self-cleavage, higher mRNA level; conditions: HEK293T, reporter: mCherry (pCS4076), ligand present: no
Outline: as §1

Variant | normalized RNA/DNA level with ligand (log10) (hypoxanthine [1]) | normalized RNA/DNA level without ligand (log10) (hypoxanthine [2])
CGAACG | 1.96 ± 0.038 | 1.8 ± 0.035
CGAACU | 1.93 ± 0.056 | 1.79 ± 0.018
CGAACA | 1.94 ± 0.011 | 1.76 ± 0.015
ACGUGC | 1.81 ± 0.023 | 1.515 ± 0.0062
AGAACU | 1.96 ± 0.035 | 1.83 ± 0.022
AGAACA | 1.91 ± 0.044 | 1.799 ± 0.0065
GCUUUU | 1.96 ± 0.011 | 1.831 ± 0.01
CCGUUU | 1.95 ± 0.028 | 1.86 ± 0.069
CCGUUC | 1.96 ± 0.079 | 1.82 ± 0.099
CCGUUG | 1.88 ± 0.045 | 1.589 ± 0.0096
CCGUUA | 1.94 ± 0.021 | 1.75 ± 0.094
CCUUAU | 1.95 ± 0.014 | 1.93 ± 0.069
CCUUAC | 1.94 ± 0.025 | 1.829 ± 0.0071
CCUUAG | 1.98 ± 0.025 | 1.72 ± 0.037
CCUUAA | 1.96 ± 0.034 | 1.85 ± 0.038
UCUGCA | 1.92 ± 0.024 | 1.88 ± 0.059
UCUGCU | 1.968 ± 0.0085 | 1.924 ± 0.0035
UCUGCG | 2.01 ± 0.08 | 1.73 ± 0.015
UCUGCC | 2.04 ± 0.021 | 1.89 ± 0.022
GCUGAG | 1.85 ± 0.083 | 1.347 ± 0.012
GCUGAC | 1.9 ± 0.034 | 1.63 ± 0.034
UGAACC | 1.9742 ± 0.00065 | 1.92 ± 0.057
UGAACG | 1.91 ± 0.034 | 1.823 ± 0.0083

Variant | normalized RNA/DNA level with ligand (log10) (hypoxanthine [1]) | normalized RNA/DNA level without ligand (log10) (hypoxanthine [2])
GCUGUC | 1.913 ± 0.0099 | 1.84 ± 0.013
GCUGUU | 1.99 ± 0.05 | 1.98 ± 0.058
GCUGUA | 1.9622 ± 0.0015 | 1.901 ± 0.014
UCUUUG | 1.95 ± 0.033 | 1.73 ± 0.043
UCUUUU | 1.95 ± 0.086 | 1.947 ± 0.0056
UCUUUC | 2.01 ± 0.052 | 1.99 ± 0.068
UCUCGG | 1.92 ± 0.032 | 1.7302 ± 0.00058
UCUCGA | 1.93 ± 0.057 | 1.832 ± 0.013
UCUCGC | 1.99 ± 0.022 | 1.757 ± 0.0053
UCUCGU | 1.96 ± 0.053 | 1.83 ± 0.045
UCGUAU | 1.92 ± 0.045 | 1.61 ± 0.024
UCGUAA | 1.87 ± 0.04 | 1.53 ± 0.066
UCGUAC | 1.94 ± 0.055 | 1.77 ± 0.031
CCUGUC | 1.989 ± 0.006 | 1.987 ± 0.018
CCUGUU | 2.04 ± 0.05 | 1.9 ± 0.14
UCUCUC | 2.025 ± 0.016 | 1.94 ± 0.09
UCUCUU | 1.94 ± 0.043 | 1.814 ± 0.017
UCUAGG | 1.96 ± 0.072 | 1.92 ± 0.089
UCUAGU | 1.99 ± 0.051 | 1.68 ± 0.019
ACUUGG | 1.88 ± 0.029 | 1.38 ± 0.068
ACUUGC | 1.9727 ± 0.00052 | 1.822 ± 0.0021
ACUUGA | 1.935 ± 0.017 | 1.72 ± 0.027
ACUUGU | 1.91 ± 0.086 | 1.77 ± 0.11

Variant | normalized RNA/DNA level with ligand (log10) (hypoxanthine [1]) | normalized RNA/DNA level without ligand (log10) (hypoxanthine [2])
UCUAAC | 1.9378 ± 0.00086 | 1.85 ± 0.013
UCGUGU | 1.82 ± 0.059 | 1.33 ± 0.041
ACGUAU | 1.86 ± 0.057 | 1.39 ± 0.053
ACGUAC | 1.9 ± 0.041 | 1.55 ± 0.036
GCUAAA | 1.95 ± 0.043 | 1.77 ± 0.023
ACUCCU | 1.965 ± 0.011 | 1.905 ± 0.018
ACUCCA | 2.014 ± 0.018 | 1.91 ± 0.023
GCGUUC | 1.93 ± 0.059 | 1.58 ± 0.11
GCGUUU | 1.965 ± 0.002 | 1.74 ± 0.11
GCUCUC | 1.98 ± 0.021 | 1.89 ± 0.079
GCUCUA | 1.941 ± 0.0064 | 1.79 ± 0.035
GCUCUU | 1.97 ± 0.052 | 1.91 ± 0.037
GCUCCC | 1.93 ± 0.043 | 1.84 ± 0.02
GCUCCU | 2.027 ± 0.006 | 1.981 ± 0.015
GCUCCG | 1.88 ± 0.12 | 1.38 ± 0.075
GCUCCA | 1.936 ± 0.018 | 1.81 ± 0.025
CCUGGG | 1.94 ± 0.027 | 1.508 ± 0.014
CCUGGC | 2.01 ± 0.037 | 1.924 ± 0.00087
CCUGGU | 1.945 ± 0.014 | 1.88 ± 0.0076
CCUGGA | 1.996 ± 0.0047 | 1.88 ± 0.02
ACUUUG | 1.91 ± 0.043 | 1.57 ± 0.021
ACUUUA | 1.903 ± 0.015 | 1.82 ± 0.067
ACUUUU | 1.92 ± 0.044 | 1.868 ± 0.012

Variant | normalized RNA/DNA level with ligand (log10) (hypoxanthine [1]) | normalized RNA/DNA level without ligand (log10) (hypoxanthine [2])
ACUUUC | 1.98 ± 0.046 | 1.95 ± 0.044
CCUCGU | 1.98 ± 0.026 | 1.87 ± 0.031
CCUCGC | 1.92 ± 0.054 | 1.92 ± 0.029
GCGUAA | 1.83 ± 0.035 | 1.49 ± 0.054
ACGUUC | 1.94 ± 0.039 | 1.79 ± 0.024
ACGUUU | 1.84 ± 0.022 | 1.53 ± 0.035
ACGUUA | 1.867 ± 0.015 | 1.62 ± 0.095
GCUUCU | 1.996 ± 0.0049 | 1.94 ± 0.058
GCUUCA | 1.966 ± 0.0076 | 1.898 ± 0.011
GCUUCC | 1.963 ± 0.0026 | 1.833 ± 0.012
CCUUCG | 1.88 ± 0.035 | 1.876 ± 0.0072
CCUUCC | 1.99 ± 0.033 | 1.963 ± 0.016
CCUUCA | 1.97 ± 0.074 | 1.91 ± 0.04
CCUUCU | 1.98 ± 0.08 | 1.95 ± 0.048
UCUGUA | 1.95 ± 0.024 | 1.8296 ± 0.0016
UCUGUU | 1.98 ± 0.035 | 1.88 ± 0.034
UCUGUC | 1.96 ± 0.0083 | 1.956 ± 0.011
UCUUAU | 1.9468 ± 0.0014 | 1.84 ± 0.092
UCUUAA | 1.87 ± 0.047 | 1.83 ± 0.041
UCUUAC | 1.94 ± 0.058 | 1.83 ± 0.044
UCUUAG | 1.93 ± 0.042 | 1.66 ± 0.017
ACUCUC | 2.06 ± 0.025 | 2.014 ± 0.005
AGAAAG | 1.82 ± 0.039 | 1.41 ± 0.029

Variant | normalized RNA/DNA level with ligand (log10) (hypoxanthine [1]) | normalized RNA/DNA level without ligand (log10) (hypoxanthine [2])
UCGUUA | 1.961 ± 0.0027 | 1.736 ± 0.0095
UCGUUC | 2 ± 0.031 | 1.95 ± 0.086
UCGUUU | 1.96 ± 0.042 | 1.8 ± 0.01
UCGUUG | 1.98 ± 0.095 | 1.785 ± 0.01
ACUGCU | 1.91 ± 0.033 | 1.86 ± 0.037
ACUGCC | 1.9853 ± 0.0019 | 1.89 ± 0.065
CCGUGC | 1.9 ± 0.057 | 1.54 ± 0.08
UCGGUU | 1.938 ± 0.006 | 1.61 ± 0.04
UCUCCC | 1.98 ± 0.14 | 1.77 ± 0.022
UCUCCU | 1.99 ± 0.059 | 1.87 ± 0.028
UCUCCG | 1.85 ± 0.036 | 1.43 ± 0.1
UCUCCA | 1.93 ± 0.069 | 1.77 ± 0.019
CCUAUG | 1.92 ± 0.13 | 1.86 ± 0.083
CCUAUC | 2.03 ± 0.028 | 2.04 ± 0.03
CCUAUU | 1.95 ± 0.063 | 1.9 ± 0.039
UCUGGU | 1.96 ± 0.031 | 1.69 ± 0.084
UCUUGU | 1.91 ± 0.1 | 1.667 ± 0.0039
UCUUGC | 1.98 ± 0.1 | 1.9 ± 0.022
UCUUGG | 1.92 ± 0.035 | 1.751 ± 0.008
GCUUAU | 1.98 ± 0.053 | 1.81 ± 0.019
GCUUAC | 1.918 ± 0.0079 | 1.7 ± 0.11
ACUCGU | 1.95 ± 0.033 | 1.89 ± 0.025
ACUCGC | 1.99 ± 0.041 | 1.93 ± 0.032
